{"source": "patent US20120237528A1", "about": "(Janssen / Centocor, published 2012)", "binders": {"B1": {"name": "M61 (antibody, V domains shown)", "VH": "EVQLVQSGAEVKKPGESLRISCKGSGYTFITYWIEWVRQMPGKGLEWMGDILPGSGSTNYSPSFQGHVTISADKSISTAYLQWSSLKASDTAMYYCARSGYYGNSGFAYWGQGTLVTVSS", "VL": "DIVMTQTPLSLSVTPGQPASISCKSSQSLLSSGNQKNYLTWYLQKPGQPPQLLIYWASTRESGVPDRFSGSGSGTDFTLKISRVEAEDVGVYYCQNDYTYPLTFGQGTKLEIK", "notes": "complete MAb; FR4 is its own entry; also called H22/L5"}, "B2": {"name": "M1, 10H10 mouse-human chimera (antibody, V domains shown)", "VH": "QVHLQQSGAELMKPGASVKISCKASGYTFITYWIEWVKQRPGHGLEWIGDILPGSGSTNYNENFKGKATFTADSSSNTAYMQLSSLTSEDSAVYYCARSGYYGNSGFAYWGQGTLVTVSA", "VL": "DIVMTQSPSSLTVTAGEKVTMSCKSSQSLLSSGNQKNYLTWYQQIPGQPPKLLIYWASTRESGVPDRFTGSGSGTDFTLTINSVQAEDLAVYYCQNDYTYPLTFGAGTKLELK", "notes": "also called H13/L1; parent chimeric antibody"}, "B3": {"name": "M59 (antibody, V domains shown)", "VH": "B1 VH", "VL": "B1 VL with S12P, Q17E, P49S", "notes": "FR4 is its own entry; also called H22/L3"}, "B4": {"name": "M1593 (wild-type human IgG1/kappa constant domains) (antibody)", "heavy": "not shown", "light": "DIVMTQTPLSLPVTPGEPASISCKSSQSLLSSGNQKNYLTWYLQKPGQSPQLLIYWASTRESGVPDRFSGSGSGTDFTLKISRVEAEDVGVYYCQNDYTYPLTFGQGTKLEIKRTVAAPSVFIFPPSDEQLKSGTASVVCLLNNFYPREAKVQWKVDNALQSGNSQESVTEQDSKDSTYSLSSTLTLSKADYEKHKVYACEVTHQGLSSPVTKSFNRGEC", "notes": "produced in unmodified CHO; also called H171/L3; copies: 2 + 2"}, "B5": {"name": "M1593-LF (hIgG1 produced in host subline producing reduced fucosylation in glycans) (antibody)", "heavy": "not shown", "light": "B4 light", "modifications": "glycan with low fucose content (less than 10% fucosylated)", "notes": "same chains as M1593 (IgG1/Kappa), made in a low-fucose CHO subline; copies: 2 + 2"}, "B6": {"name": "M1593-DE (hIgG1 with S239D/I332E) (antibody)", "heavy": "not shown", "light": "B4 light", "notes": "copies: 2 + 2"}, "B7": {"name": "M1611 (antibody, V domains shown)", "VH": "B1 VH with I30G, T31P, S57Y, N59T", "VL": "B1 VL with S12P, Q17E, P49S", "notes": "complete MAb; FR4 is its own entry; also called H128/L3"}, "B8": {"name": "M1607 (antibody, V domains shown)", "VH": "B1 VH with Y27F, E35A, G54A, G56S", "VL": "B1 VL with S12P, Q17E, P49S", "notes": "complete MAb; FR4 is its own entry; also called H189/L3; TF7M1607"}, "B9": {"name": "M1612 (antibody, V domains shown)", "VH": "B1 VH with I30N, T31P, S55T, S57Y", "VL": "B1 VL with S12P, Q17E, P49S", "notes": "complete MAb; FR4 is its own entry; also called H133/L3; TF7M1612"}}, "note": "Numbering of substitutions follows the chain as printed. In names and notes the source's numbering stands.", "data": [{"molecular_target": "T1, recombinant extracellular domain (ECD) of human TF, amino acid 1-219 of the mature chain, C-terminal His6-tag (human, UniProt P13726 33-251)", "T1 construct": "expressed in a mammalian system; used for ELISA and Biacore; biotinylated by NHS-ester for the Fab ELISA; also called His6-TF-ECD1-219; HumanTF1-219", "experiment": "Biacore, KD compared with the reference (0.56 nM, the value of M1 in Table 5)", "units": {"fold lower KD than the murine parent MAb": "fold"}, "values": [{"binder": "B1", "fold lower KD than the murine parent MAb": 2.5}]}, {"molecular_target": "T2, endogenous human tissue factor on MDA-MB-231 breast cancer cells (human, UniProt P13726 33-295)", "T2 construct": "also called native TF; TF", "experiment": "FACS on MDA-MB-231 cells", "protocol": "This assay is used to detect the direct binding of antibody to endogenouse human TF expressed in breast cancer cells. Prepare four point titrations of the test mAbs in FACS buffer (1% FBS in PBS) in duplicate. Start a titration at 1,000 ng/ml with 1:4 dilutions. […] Unstained cells and secondary antibody, Cy-5 conjugated Goat anti-Human IgG Fc antibody in FACS buffer 1:200, is used as controls and prepared immediately before use.\nUsing standard tissue culture technique, rinse adherent MDA-MB-231 cells in culture flask with once with PBS (w/o Ca+2/Mg+2). Lift cells with Versene and count the cells and seed 200,000 cells per well in a polystyrene V-bottom plate. FACS Analysis Protocol: Tissue Factor Binding. Pellet the cells in a Allegra X-15R centrifuge at 450×g for 3 minutes at 4° C., resuspend in FACS Buffer (2% FBS in PBS) and plate 200,000 cells per well in 200 uL. Pellet cells at 450×g for 3 minutes at 4° C. Discard supernatants and add 100 uL/well test or control mAbs to designated wells and incubate on ice or at 4° C. for 1 hour (+/−10 minutes). Pellet cells at 450×g for 3 minutes at 4° C. Discard supernatants and wash cells once in FACS buffer. Resuspend cells in 200 uL/well FACS buffer and pellet cells at 450×g for 3 minutes at 4° C. Discard supernatants and add 100 uL/well secondary antibody to designated wells (triterate), and incubate on ice for 1 hour (+/−10 minutes). Pellet cells at 450×g for 3 minutes at 4° C. Discard supernatants and wash cells 2 times in FACS buffer before resuspending the cells in 200 uL/well FACS Buffer (triterate). Pellet cells at 450×g for 3 minutes at 4° C. Discard supernatant and resuspend cells in 100 uL/well CytoFix Buffer. Analyze reactions by flow cytometry (BD FACSArray). The FlowJo Software is used for FACS data analysis by gating the main population of cells in the unstained control well and applying the gate to the whole data set. The data is exported as a table of the geometric mean fluorescence intensity (MFI) in the red channel for the applied gate.", "units": {"Whole Cell Binding, Ave %": "%"}, "values": [{"binder": "B2", "Whole Cell Binding, Ave %": 101}, {"binder": "B1", "Whole Cell Binding, Ave %": 111}]}, {"molecular_target": "T2, endogenous human tissue factor on …", "experiment": "cell-based or functional assay", "units": {"IL-8 Induction, Ave % inhibition": "%"}, "values": [{"binder": "B2", "IL-8 Induction, Ave % inhibition": 106}, {"binder": "B3", "IL-8 Induction, Ave % inhibition": 103}, {"binder": "B1", "IL-8 Induction, Ave % inhibition": 112}]}, {"molecular_target": "T3, Cynomolgous monkey (cyno) TF-ECD with His Tag (cynomolgus monkey, UniProt P13726 33-251 (human entry))", "T3 construct": "also called cyno antigen", "T3 chain": "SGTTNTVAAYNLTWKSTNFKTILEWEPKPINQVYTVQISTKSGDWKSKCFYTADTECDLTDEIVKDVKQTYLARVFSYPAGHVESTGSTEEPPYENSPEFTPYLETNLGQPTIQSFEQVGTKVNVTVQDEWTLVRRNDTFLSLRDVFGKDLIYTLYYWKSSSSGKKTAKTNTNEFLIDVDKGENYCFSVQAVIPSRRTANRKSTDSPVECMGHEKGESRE", "experiment": "Biacore", "units": {"Kd": "pM"}, "values": [{"binder": "B2", "Kd": 1340}, {"binder": "B3", "Kd": 1280}, {"binder": "B1", "Kd": 1710}]}, {"molecular_target": "T1, recombinant extracellular domain (ECD) …", "experiment": "Biacore", "units": {"Kd": "pM"}, "values": [{"binder": "B2", "Kd": 560}, {"binder": "B1", "Kd": 210}]}, {"molecular_target": "T1, recombinant extracellular domain (ECD) …", "experiment": "Biacore", "remark": "another data set of the same source", "units": {"fold lower KD than the murine parent MAb (M1)": "fold"}, "values": [{"binder": "B1", "fold lower KD than the murine parent MAb (M1)": 2.5}]}, {"molecular_target": "T4, recombinant human FcγIIIa receptor (human, UniProt P08637 17-208, limits assumed)", "T4 construct": "also called FcγRIIIa", "T4 sequence (P08637 17-208 limits assumed)": "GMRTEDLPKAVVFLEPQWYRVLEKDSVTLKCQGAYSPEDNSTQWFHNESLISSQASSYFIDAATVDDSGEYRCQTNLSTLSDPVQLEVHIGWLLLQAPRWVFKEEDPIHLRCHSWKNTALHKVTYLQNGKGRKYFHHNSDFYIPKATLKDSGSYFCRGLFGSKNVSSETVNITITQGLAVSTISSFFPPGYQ", "experiment": "Fc receptor binding assay (method of a co-pending application or Biacore)", "units": {"Kd": "pM"}, "values": [{"binder": "B4", "Kd": 210000}, {"binder": "B5", "Kd": 12000}, {"binder": "B6", "Kd": 5000}]}, {"molecular_target": "T4, recombinant human FcγIIIa receptor", "experiment": "Fc receptor binding assay", "units": {"fold tighter binding than the unmodified IgG1 M1593": "fold"}, "values": [{"binder": "B5", "fold tighter binding than the unmodified IgG1 M1593": 18}, {"binder": "B6", "fold tighter binding than the unmodified IgG1 M1593": 40}]}, {"molecular_target": "T1, recombinant extracellular domain (ECD) …", "experiment": "Biacore", "remark": "another data set of the same source", "units": {"Kd": "pM", "koff": "s⁻¹", "kon": "M⁻¹ s⁻¹"}, "values": [{"binder": "B7", "Kd": 310, "koff": "5.9e-05", "kon": 192000}, {"binder": "B8", "Kd": 350, "koff": "6e-05", "kon": 170000}, {"binder": "B9", "Kd": 380, "koff": "6.3e-05", "kon": 165000}, {"binder": "B1", "Kd": 200, "koff": "1.9e-05", "kon": 94100}]}, {"molecular_target": "T3, Cynomolgous monkey (cyno) TF-ECD with …", "experiment": "TF-ECD binding ELISA, chemiluminescent", "units": {"EC50": "µg/mL"}, "values": [{"binder": "B2", "EC50": 0.0173}, {"binder": "B3", "EC50": 0.0187}, {"binder": "B1", "EC50": 0.0241}]}, {"molecular_target": "T1, recombinant extracellular domain (ECD) …", "experiment": "TF-ECD binding ELISA, chemiluminescent", "units": {"EC50": "µg/mL"}, "values": [{"binder": "B2", "EC50": 0.0117}, {"binder": "B3", "EC50": 0.0088}, {"binder": "B1", "EC50": 0.0083}]}, {"molecular_target": "Innovin, lyophilized recombinant human tissue factor combined with phospholipids (human, UniProt P13726 33-295, limits assumed)", "experiment": "cell-based or functional assay", "units": {"T½ Max (seconds), coagulation of human plasma": "s"}, "values": [{"binder": "B2", "T½ Max (seconds), coagulation of human plasma": 173}, {"binder": "B3", "T½ Max (seconds), coagulation of human plasma": 169}, {"binder": "B7", "T½ Max (seconds), coagulation of human plasma": 154}, {"binder": "B8", "T½ Max (seconds), coagulation of human plasma": 152}, {"binder": "B9", "T½ Max (seconds), coagulation of human plasma": 163}, {"binder": "B1", "T½ Max (seconds), coagulation of human plasma": 186}, {"binder": "B4", "T½ Max (seconds), coagulation of human plasma": 164}]}, {"molecular_target": "T4, recombinant human FcγIIIa receptor", "experiment": "cell-based or functional assay", "units": {"EC50 (read off the curve)": "µg/mL"}, "values": [{"binder": "B2", "EC50 (read off the curve)": "~0.07"}, {"binder": "B4", "EC50 (read off the curve)": "~0.02"}, {"binder": "B5", "EC50 (read off the curve)": "~0.006"}, {"binder": "B6", "EC50 (read off the curve)": "~0.005"}]}, {"molecular_target": "T2, endogenous human tissue factor on …", "experiment": "cell-based or functional assay", "remark": "another data set of the same source", "units": {"% IL-8 Inhibition": "%"}, "values": [{"binder": "B2", "% IL-8 Inhibition": 96.1}, {"binder": "B3", "% IL-8 Inhibition": 83.8}, {"binder": "B1", "% IL-8 Inhibition": 107}]}, {"molecular_target": "T2, endogenous human tissue factor on …", "experiment": "cell-based or functional assay", "remark": "another data set of the same source", "units": {"IC50 (ug/ml), IL-8 induction assay": "µg/mL"}, "values": [{"binder": "B2", "IC50 (ug/ml), IL-8 induction assay": 0.527}, {"binder": "B3", "IC50 (ug/ml), IL-8 induction assay": 0.382}, {"binder": "B7", "IC50 (ug/ml), IL-8 induction assay": 0.398}, {"binder": "B8", "IC50 (ug/ml), IL-8 induction assay": 0.395}, {"binder": "B9", "IC50 (ug/ml), IL-8 induction assay": 0.413}]}]}
